# Data taken from PMC10387098.
# Like-named read-outs stand apart in the source and are kept apart here.
# What was measured:
# [1] = biological target: KRAS4b residues 1–169 with N-terminal cysteine, Alexa Fluor 647-labeled, GMP-PNP-bound (UniProt P01116); assay: MST; 10 μL of 5 nM Alexa Fluor 647-labeled GMP-PNP-bound KRAS mixed with 10 μL of serially diluted BRAF proteins (10 pM to 1 μM); 0.05% Tween-20; Monolith NT.115pico; three independent dilution series averaged
# [2] = biological target: CRAF RBD-CRD-C2 (Homo sapiens) (UniProt P04049); details: cited from earlier work
# CRAF RBD (Homo sapiens) = CRAF RBD (Homo sapiens) (UniProt P04049); details: cited from earlier work
# [3] = biological target: CRAF RBD-CRD (Homo sapiens) (UniProt P04049); details: cited from earlier work
# [4] = biological target: CRAF RBD-CRD (Homo sapiens) (UniProt P04049); assay: SPR; details: cited from earlier work
Substance,Kd [1],Kd [2],Kd (CRAF RBD (Homo sapiens)),Kd [3],Kd [4]
"BRAF/14-3-3 (full length, active dimer) (from UniProt P15056 1-766) (complex)",106 nM,–,–,–,–
"BRAF/MEK/14-3-3 (autoinhibited), as used for MST (from UniProt P15056 1-766; Q02750 1-393) (complex)",127 nM,–,–,–,–
KRAS (from UniProt P01116),–,188 nM,21.2 nM,190 nM,188 nM
